Test results taken from the nanobody polyreactivity screen of Harvey et al. (2022).

assay: yeast display, Sf9 membrane polyspecificity reagent, FACS + sequencing; frameworks hold sequencing errors
Procedure, shortened: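 Galactose-induced (36–48 hours) yeast carrying a synthetic nanobody display library were exposed to 10% biotinylated, detergent-solubilized Sf9 membrane reagent at 4 °C for 1 hour. FACS followed streptavidin microbead enrichment, using low and high (top ~1%) gates for expression (anti-HA) and reagent binding (streptavidin). Colony PCR, MiSeq 2 × 250 sequencing and CDR-length filtering followed. Labels for polyreactivity reflect the gate of origin.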

| Sequence | polyreactivity (PSR sort gate) |
| --- | --- |
| QVQLVESGGGLVQAGGSLRLSCAASGSILALYTMGVYRQAPGKERELVASISSGGRTNYADSVKGRFTISRDNAKNTVYLQMNSLKPEDTAVYYCARSRLGRAYGRYDYWGQGTQVTVSS | low polyreactivity |
| QVQLVESGGGLVQAGGSLRLSCAASGSILARYAMGWYRQAPGKERQLVAAISYNGCSTYYADSVKGRFTISRDNAKNTVYLQMNSLKPEDTAVYYCAKAYDTTLTYNYWGQGTQVTVSS | low polyreactivity |
| QVQLVESGGGLVQAGGSLRLSCAASGSILDGYDMGRYRQAPGKERDLDAAISTNSDRTYYADSVKGRFTISRDNAKNTVYLQMNSLKPEDTAVYYCNARKRRRAGYPYDYWGQGTQVTVSS | high polyreactivity |
| QVQLVESGGGLVQAGGSLRLSCAASGSILDIYAMGLYRQAPGKERELVAGISTSGGSTYYADSVMGRFTFSRDNAKITVYLQMNSLKPEDTAVYYCAKDYGYQGHTSTLYWAYLEYDFWGQVTQVTVSS | low polyreactivity |
| QVQLVESGGGLVQAGGSLRLSCAASGSILDLNAMGWYRQAPGKERELVAAISYSGDSTYYADSVKGRFTISRDNAKNTVYLQMNSLKPEDTAVYYCAAEVYGAVFDYWGQGTQVTVSS | low polyreactivity |
| QVQLVESGGGLVQAGGSLRLSCAASGSILDQNTMGWYRQAPGKERELVAAITGSGGITYYADSVKGRFTISRDNAKNTVYLQMNSLKPEDTAVYYCATRTWRAYRKYNYWGQGTQVTVSS | high polyreactivity |
| QVQLVESGGGLVQAGGSLRLSCAASGSILDSNAMGWYRQAPGKERELVAAITSGGSTYYADSVKGRFTISRDNAKNTVYLQMNSLKPEETAVYYCAAAYLGYGAVQPSYEGGYWGQGTQVTVSS | low polyreactivity |
| QVQLVESGGGLVQAGGSLRLSCAASGSILDSYAMGWDRQAPGKERELVAASTRSGVRTYYADSVKGRFTISRDNAKNTVYLQMNSLKPEDTAVYYCAARVTRYRDLNYWGQGTQVTVSS | high polyreactivity |
| QVQLVESGGGLVQAGGSLRLSCAASGSILDYYVMGWYSQAPGKERELVAAIRGGGSTYYADSVKARFTISRDNAKNTVYLQMNSLKPEDTAVYYCAKDSQTARDFDYWGQGTQVTVSS | low polyreactivity |
| QVQLVESGGGLVQAGGSLRLSCAASGSILFGNAMGWYRQAPGKERELVAAITVSGGSTYYADSVKGRFTISRDNAKNTVYLQMNSLKPEDTAVYYCAAGGWWHYRPQSYSGPFDYWGQGTQVTVSS | low polyreactivity |
| QVQLVESGGGLVQAGGSLRLSCAASGSILFTNAMGWYRQAPGKERELVAAISSGGSTYYADSVKGRFTISRDNAKNTVYLQMNSLKPEDSAVYYCAADHLNVGREYVEYDYWGQGTQVTVSS | low polyreactivity |
| QVQLVESGGGLVQAGGSLRLSCAASGSILFTNAMGWYRQAPGKERELVAAISSGGSTYYADSVKGRFTISRDNAKNTVYLQMNSLKPEDTAVYYCAADQLNVGREYVEYDFWGQGTQVTVSS | low polyreactivity |
| QVQLVESGGGLVQAGGSLRLSCAASGSILGANAMGWYRQAPGKERELVAAISYRGGSTYYADSVKGRFTISRDNAKNTVYLQMNSLKPEDTAVYYCAAVVPTGYDYWGQGTQVTVSS | low polyreactivity |
| QVQLVESGGGLVQAGGSLRLSCAASGSILGDNAMAWYRQAPGKERELVAAISYRGGSTYADSVKGRFTISRANAKNTVYLQMNSLKPEDTAVYYCNKTDIDDSQYREYEYWGQGTQVTVSS | low polyreactivity |
| QVQLVESGGGLVQAGGSLRLSCAASGSILGDYGMGWYRQAPGKERELVAAITWNGDSTYYADSVKGRFTISRDNAKNTVYLQMNSLKPEDTAVYYCAADLQDYKYYPWYGYWGQGTQVTVSS | low polyreactivity |
| QVQLVESGGGLVQAGGSLRLSCAASGSILGDYGMGWYRQAPGKEREVVAAITWNGDSTYYADSVKGRFTISRDNAKNTVYLQMNSLKPEDTAVYYCAADLQDYKYYPWYGYWGQGTQVTVSS | low polyreactivity |
| QVQLVESGGGLVQAGGSLRLSCAASGSILGGNAMGWYRQAPGKERELVAAITFSGGGTYYADSVKGRFTISRDNAKNTVYLQMNRLKPEDTAVYYCNAFGPDYYHVYPAEDYWGQGTQVTVSS | low polyreactivity |
| QVQLVESGGGLVQAGGSLRLSCAASGSILGGNSMGWYRQATGKERVLVAAITFSGGGTYYADSVKGRFTISRDNAKKTVYLQMNSLKPEDSAVYYCAADKDGYTYEFDYWGQGTQVTVSS | low polyreactivity |
| QVQLVESGGGLVQAGGSLRLSCAASGSILGLYAMRWYRQATGKERELVASIPSSGSTYYAVSVKGRFTISRDYAKNTVYLQMYSLKPEDTAVYYCAAVGSYYYYIRYDYWGQGTQVTVSS | low polyreactivity |
| QVQLVESGGGLVQAGGSLRLSCAASGSILGPNAMGWYRQAPGKERELVARISTSGGSTYYADSVKGRFTISRDNAKNTVYLQMNSLKPEDTAVYYCATGLVWWRSPYDYWGQGTQVTVSS | high polyreactivity |
| QVQLVESGGGLVQAGGSLRLSCAASGSILGPYAMGWYRQAPGKERELVAGISGSGTRTYYADSVKGRFTISRDNAKNTVYLQMNSLKPEDPAVYYCAARYYSSWIRYPTYDYWGQGTQVTVSS | high polyreactivity |
| QVQLVESGGGLVQAGGSLRLSCAASGSILGRYAMGGYRQAPGKERELVASITRRAGTTYYADSVKGRFTISRDNAKNTVYLQKNSLKPEATAVYYCAARAYTNYYYWGQGTQVTVSS | high polyreactivity |

| Sequence | polyreactivity (PSR sort gate) |
| --- | --- |
| QVQLVESGGGLVQAGGSLRLSCAASGSILGSNAMGWYRQAPGKERELVAAITSSGGSTYYADSVKGRFTISRDNAKNTVYLQMNSLKPEDTAVYYCAARTNYDSTRGEYDYWGQGTQVTVSS | low polyreactivity |
| QVQLVESGGGLVQAGGSLRLSCAASGSILGSYAMGWYRQAPGKERELVAAINYSGGSTYYADSVKGRFTISRDNAKNTVYLQMNSLKPEETAVYYCAAVATAGYSNYKLDYWGQGTQVTVSS | low polyreactivity |
| QVQLVESGGGLVQAGGSLRLSCAASGSILGVYAMGWYRQAPGKERELVAAISSGGRTYYADSVKGRFTISRDNAKNTVYLQMNSLKPEDTAVYYCNAVSGSFLKYSRYYWGQGTQVTVSS | high polyreactivity |
| QVQLVESGGGLVQAGGSLRLSCAASGSILIGNAMGWYRQAPGKERELVAGISSDVSTNYADSVKGRFTISRDNAKNTVYLQMNSLNPEDTAVYYCNKDAGPFQEHLYSWGYDSWGQGTQVTVSS | low polyreactivity |
| QVQLVESGGGLVQAGGSLRLSCAASGSILIVYAMGWYRQAPGKERELVAAITRGGRTNYADSVKGRFTISRDNAKNTVYLQMNSLKPEDTAVYYCAARVLPANVKPYNYWGQGTQVTVSS | high polyreactivity |
| QVQLVESGGGLVQAGGSLRLSCAASGSILKRYAMGWYRQAPGKERELVAAITRRGGSTYYADSVKGRFTISRDNAKNTVYLQMNSLKPEDTAVYYCNAYTYSATVPIFTNYGYWGQGTQVTVSS | high polyreactivity |
| QVQLVESGGGLVQAGGSLRLSCAASGSILLDYAMGWYRQAPGKERELVAVISRRGTSTYYADSVKGRFTISRDNAKNTVYLQMNSLKPEDTAVYYCATSTWSFYRRYDYWGQGTQVTVSS | high polyreactivity |
| QVQLVESGGGLVQAGGSLRLSCAASGSILLTNAMGWYRQAPGKERELVAAITSSGGSTSYADSVKGRFTISRDNAKNTVYIQMNSLKPEDTAVYYCAAAQRYRSQQFDHWGQGTQVTVSS | low polyreactivity |
| QVQLVESGGGLVQAGGSLRLSCAASGSILLWNTMGWYRQAPGKERELVADIRLSASSTYYSDSVKGRITISRDNAKNTVYLQMNSLKPEDTAVSYSAADEYTPDYGQGYDYWGQGTQVTVSS | low polyreactivity |
| QVQLVESGGGLVQAGGSLRLSCAASGSILNDYAMGWYRQAPGKERELVAGISRGGGTYYADSVKGRFTISRDNAKNTVYLQMNSLKPEDTAVYYCAKRIYWYHYRYDYWGQGTQVTVSS | high polyreactivity |
| QVQLVESGGGLVQAGGSLRLSCAASGSILPRYVMGSYRQAPAKETELVAAISQSGGSTYYADTVKARFTISRDNAKNTVYLQMNRLKPEDTAVYYCAAEVRGWRVDYYYWGQGTQVTVSS | high polyreactivity |
| QVQLVESGGGLVQAGGSLRLSCAASGSILPYYAMGWYRQAPGKERELVAAISVSGGGTYYADSVKGRFTISRDNAKNTVYLQMNSLKPEDTAVYYCARNVNAQKVLGGFDSWGQGTQVTVSS | low polyreactivity |
| QVQLVESGGGLVQAGGSLRLSCAASGSILQTNVMGWYIQAPGKEREFVAAIRWSTVSTYYADSVKGRFTISRDNAKNTVYLQMNSLKPEDTAVYYCASAKSWYSYKMDYWGQGTQVTVSS | low polyreactivity |
| QVQLVESGGGLVQAGGSLRLSCAASGSILRRNTMGCYRQAPGKERELVAAINKTGGSTYYADSVKGRFTISRDNAKNTVYLQMNSLKPEDTAVYYCNRDKYYGTKYDYWGQGTQVTVSS | low polyreactivity |
| QVQLVESGGGLVQAGGSLRLSCAASGSILRRYAMGWYRQAPWKERELVAAITSSGGGTYYADSVKGRFTISRDNAKNTVYLQMKSLKPEVTAVYYCAAEYGWLYEYDYWGQGTQVTVSS | high polyreactivity |
| QVQLVESGGGLVQAGGSLRLSCAASGSILRSNAMGWYRQAPGKERELVAAITFNGGSTYADSVKGRFTISRDNAKNTVYLQMNSLIPEDTAVYYCATGDGPSLFDYWGQGTQVTVSS | low polyreactivity |
| QVQLVESGGGLVQAGGSLRLSCAASGSILRSYAMGWYRQAPGKERELVAAISSSGGSTYYADSVKGRFTISRDNAKNTVYLQMNSLKPEDTAVYYCAAATSRRFDYWGQGTQVTVSS | high polyreactivity |
| QVQLVESGGGLVQAGGSLRLSCAASGSILRTYTMGWYRQATGKERELVAAISSSGGRTYYADSVKGRFTISRDNAKNTVYLQMNSLKPEDTAVYYCNAGGYRYRSYDYWGQGTQVTVSS | high polyreactivity |
| QVQLVESGGGLVQAGGSLRLSCAASGSILRYTMGWYRQAPGKEREWVAAITRSGTSTYYADSVKGRFTISRDNAKNTVYLQMNSLKPEDTAVYYCAASAGPRASYYYWGQGTQVTVSS | high polyreactivity |
| QVQLVESGGGLVQAGGSLRLSCAASGSILRYYAMGWYRQAPGKERELVAAITGRGGRTYYADSVKGRFTISRDNAKYTVYLQMNSLKPEDTAVYYCAADGDNPYLHEEDYWGQGTQVTVSS | high polyreactivity |
| QVQLVESGGGLVQAGGSLRLSCAASGSILSFNAMGWYRQAPGKERELVAAISRGGSTNYADSVKGRFTISRDNAKNTVYLQMNSLKPEDTAVYYCAAVQYRYSTRWARRAYDYWGQGTQVTVSS | high polyreactivity |
